Assay results reported in patent publication US20240325555A1 (LANOVA MEDICINES, published 2024).
Positions count from the first letter of the chain named.

B1: 112H11C12 (antibody, V domains shown)
VH: QVQLQQPGAELVRPGASVKLSCKASGYTFTSYWMNWVKQRPGQGLKWIGMIDPSNSKTHYNQMFKDKATLTVDKSSNTAYMQLSSLTSEDSAVYYCARTSTTMATFAYWGQGTLVSVSA
VL: DVLMTQTPLSLPVSLGDQASISCRSSQSIVHSNGNTYLEWYLQKPGQSPKLLIYKVSNRFSGVPDRFSGSGSGTDFTLKISRVEAEDLGVYYCFQASHFPLTFGAGTELDLN
notes: Tested as chimeric antibody; also called 112H1C12
B2: 124H4D11 (antibody, V domains shown)
VH: EVPLQQSGAELVRSGASVKLSCTASGFNIKDYYMHWVKQRPEQGLEWIGWIDPENGDTEYDPKFQGKATMTADTSSNTADLQLSSLTSEDTAVYYCNARYYAFDYWGQGTTLTVSS
VL: B1 VL with D75E, A96G, H98Q, F99V, L101P, A105G, E108R, D110E, L111I, N112K
notes: Tested as chimeric antibody
B3: 282G5A2 (antibody, V domains shown)
VH: QVQLQQSGAELVRPGTSVKVSCKASGYALTKYLIEWIKQRPGQGLEWIGVINPGNAGNNYNEKFKGKATLTVDQSSSTAYMQLSSLTSEDSAVYFCARRGRDYAMDNWGQGTSVTVSS
VL: EIVLTQSPAIMSASLGEKVTMSCRASSSINYIYWYQQKSDASPKLWIYYTSNLAPGVPARFSGSGSGNSYSLTISSMEDEDAATYYCQQFTSSPLTFGAGTKLELK
notes: Tested as chimeric antibody
B4: 135C6E7 (antibody, V domains shown)
VH: EVQLVESGGGLVQPKGSLKLSCAASGFTFNTYAMNWVRQAPGKGLEWVARIRSKYNSYATYYADSVKDRFTISRDDSQSILYLQMNNLKTEDTAMYYCVRHEDYDGGFAYWGQGTLVTVSA
VL: DIVMSQSPSSLAVSVGEKVTMSCKSSQSLFKSRTRKNYLAWYQQKPGQSPKLLIYWASTRESGVPDRFTGSGSGTDFTLTISSVQAEDLAVYYCKESYNLMYTFGGGTKLEIK
notes: Tested as chimeric antibody
B5: 136F3D10C10 (antibody, V domains shown)
VH: QVQLQQSGPELVKPGASVRIFCKASGYTFTSFHIHWVKQRPGQGLEWIGWIYPGNDNTDHNEKFKGKATLSADKSSSTVYMQLSSLTSEDSAVYFCGRSNYYGPLFAYWGQGTLVTVSA
VL: DILMTQTPLSLPVSLGDQASISCRSSQNIVRSNGNTYLEWYLQKPGQSPKVLIYRVSNRFSGVPDRFSGSGSGTDFTLKISRVEAEDLGVYYCFQGSYVPYTFGGGTKLEIK
notes: Tested as chimeric antibody
B6: 286B5E6 (antibody, V domains shown)
VH: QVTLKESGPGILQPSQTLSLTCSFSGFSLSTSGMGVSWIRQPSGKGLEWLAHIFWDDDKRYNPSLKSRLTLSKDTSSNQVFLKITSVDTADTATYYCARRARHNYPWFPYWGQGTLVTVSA
VL: DIVLTQSPASLAVSLGQRATISCKASQSVDYDGDSYMNWYQQKPGQPPKLLIYAASNLESGIPARFSGSGSGTDFTLNIHPVEEEDAATYYCQQSNEGPYTFGGGTKLEIK
notes: Tested as chimeric antibody
B7: 293F10B6 (antibody, V domains shown)
VH: QVTLKESGPGMLQPSQTLNLTCSFSGFSLNTSGMGVSWIRQPSGKGLEWLAHIFWDDDKRYNPSLKSRLTISKDVSSNQVFLKITSVDTADTATYFCARRARNNYPWFPYWGQGTLVTVSA
VL: B6 VL with E59D, V82M, E84D, A87V, E97G, G98A, Y100F
notes: Tested as chimeric antibody
B8: 248H1G3 (antibody, V domains shown)
VH: EVQLQQSGPELMKRGASVKISCKTSTFTFTEFTIHWVKQSHGKSLEWIGGINPNTGGTSYNQNFTGKATLTVDKSSITAYMELRSLTSEDSAIYYCAPNWDGYWFFDVWGAGTTVTVSS
VL: DIQMTQSPASLSASVGETVTITCRASGNIQNYLAWYQQKQGKSPQLLVYGAKTLADGVPSRFSGSGSGTQFSLKINSLQPEDFGSYYCQHFWSPPLTFGAGTKLELK
notes: Tested as chimeric antibody
B9: 108H1D4 (antibody, V domains shown)
VH: EVKLVESGGDLVQPGGSRKLSCAASGFTFSDYGMAWFRQAPGKGPEWVAFISNLAYNIYYADTVTGRFTISRENARNTLYLEMSSLRSEDTAMYYCAREGGITTVPATDYFDYWGQGTTLTVSS
VL: DIQMTQTTSSLSASLGDRVTFSCRASQDIRNYLNWYQQKPDGTVKLLIYYTSRLHSGVPSRFSGSGSGTDYSLTINNLEQEDLATYFCQQVNALPLTFGAGTKLELK
notes: Tested as chimeric antibody

Key:
[1] = target: T1, human LIV-1 (human, UniProt Q13433 29-755); test: cell-based or functional assay
T1 sequence (looked up): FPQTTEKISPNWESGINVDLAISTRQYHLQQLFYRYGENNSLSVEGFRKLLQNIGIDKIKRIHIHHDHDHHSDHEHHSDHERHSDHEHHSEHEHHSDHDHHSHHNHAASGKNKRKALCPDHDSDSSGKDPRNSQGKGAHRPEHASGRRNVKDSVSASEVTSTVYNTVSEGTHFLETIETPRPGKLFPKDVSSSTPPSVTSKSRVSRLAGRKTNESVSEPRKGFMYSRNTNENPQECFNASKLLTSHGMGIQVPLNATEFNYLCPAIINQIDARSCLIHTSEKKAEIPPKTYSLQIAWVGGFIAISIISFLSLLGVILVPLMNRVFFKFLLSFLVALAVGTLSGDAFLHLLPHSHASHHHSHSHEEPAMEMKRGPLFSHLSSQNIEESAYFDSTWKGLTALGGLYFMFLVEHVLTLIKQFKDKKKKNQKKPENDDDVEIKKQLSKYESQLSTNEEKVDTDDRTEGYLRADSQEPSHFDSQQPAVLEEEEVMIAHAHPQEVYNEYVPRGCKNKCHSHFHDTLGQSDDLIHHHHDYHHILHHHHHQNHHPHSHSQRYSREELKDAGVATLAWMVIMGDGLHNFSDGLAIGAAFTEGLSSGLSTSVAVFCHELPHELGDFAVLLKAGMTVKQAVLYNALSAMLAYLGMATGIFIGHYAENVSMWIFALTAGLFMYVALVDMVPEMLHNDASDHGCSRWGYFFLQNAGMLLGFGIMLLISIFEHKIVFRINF

[2] = target: T1, human LIV-1; test: cell-based or functional assay; remark: listed apart in the source
[3] = target: T1, human LIV-1; test: cell-based or functional assay; remark: listed apart in the source
[4] = target: T1, human LIV-1; test: FACS, HEK293/H_LIV-1 cells
Outline: (§1)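 HEK293 cells over-expressing human or cyno LIV-1 incubated with chimeric Abs (from 100 nM, 5-fold dilutions, 8 points) for 60 min at 4 °C, then fluorescent secondary antibody 30 min at 4 °C; washes in 2% FBS/PBS. Binding read by flow cytometry; EC50 from the titration curve.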

[5] = target: cynomolgus LIV-1 (cynomolgus, UniProt A0A2K5WH46 30-741); test: FACS, HEK293/Cyno_LIV-1 cells
Outline: as §1

Binder	ADCC reporter EC50 [1] [nM]	ADCC reporter Top (RFU) [1] [RFU]	Internalization EC50 [2] [nM]	Internalization Top (RFU) [2] [RFU]	Cell viability(%) [3] [%]	Cytotoxicity IC50 [3] [nM]	EC50 [4] [nM]	Top (MFI) [4] [MFI]	EC50 [5] [nM]	Top (MFI) [5] [MFI]
B1	20.5	74700	13.2	643000	18	2.08	20.7	8800	12	2930
B2	2.1	81900	4.3	474000	15.4	0.57	0.23	7980	0.2	3370
B3	1.2	11300	41.2	227000	8.58	12.1	1.12	19700	0.87	13000
B4	6.4	53100	12.4	675000	17.6	4.6	3.6	16500	2.69	6290
B5	4.8	83900	32.2	835000	16.3	1.21	0.85	7910	0.76	3450
B6	1.1	47800	4.6	448000	4.88	1.39	0.32	8090	0.55	2490
B7	7.9	133000	6.1	495000	3.41	1.46	0.45	8100	0.98	2250
B8	0.5	61600	4.6	357000	3.31	2.99	0.89	9640	2.05	2700
B9	8.3	139000	4.8	511000	17.3	0.7	0.9	8800	130	762
